# Assay results: the Human Domainome abundance scans (Beltran et al. 2025)
# ± gives the uncertainty stated by the source.
# B1: CD2-associated protein, residues 1 to 59; numbered along this chain, Q9Y5K6 (parent)
# chain: MVDYIVEYDYDAVHDDELTIRVGEIIRNVKKLQEEGWLEGELNGRRGMFPDNFVKEIKR
# B2: Pyruvate dehydrogenase protein X component, mitochondrial, residues 181 to 227; numbered along this chain, O00330 (parent)
# chain: RFRLSPAARNILEKHSLDASQGTATGPRGIFTKEDALKLVQLKQTGK
# Variants of: B1
# Assay: abundance fitness (aPCA) (normalised: wild type 0, dead -1); higher = more abundant; growth selection in yeast, the domain comes from the species named
# Settings: Homo sapiens
row,Variant,abundance fitness
1,F49S,-0.695 ± 0.15
2,F49P,-0.877 ± 0.3
3,F49Q,-0.857 ± 0.43
4,F49V,-0.056 ± 0.17
5,F49M,-0.38 ± 0.12
6,P50V,-0.996 ± 0.28
7,P50I,-0.843 ± 0.29
8,P50R,0.115 ± 0.15
9,P50L,-0.412 ± 0.11
10,P50A,-0.502 ± 0.16
11,P50S,-0.329 ± 0.11
12,P50G,-0.322 ± 0.12
13,P50K,-0.184 ± 0.28
14,P50N,-0.261 ± 0.23
15,P50T,-0.746 ± 0.24
16,P50H,-0.149 ± 0.17
17,P50F,-0.589 ± 0.16
18,P50E,-0.968 ± 0.4
19,V54H,-0.484 ± 0.43
20,V54G,-0.075 ± 0.091
21,V54R,-0.557 ± 0.19
22,V54S,-0.358 ± 0.16
23,V54P,-0.604 ± 0.32

row,Variant,abundance fitness
1,V54A,-0.258 ± 0.21
2,V54T,-0.209 ± 0.3
3,I57G,-0.157 ± 0.24
4,I57M,-0.205 ± 0.35
5,I57C,-0.25 ± 0.32
6,I57V,-0.03 ± 0.37
7,I57R,-0.007 ± 0.25
8,I57P,-0.326 ± 0.31
9,K55E,-0.489 ± 0.3
10,K55C,-0.027 ± 0.15
11,K55I,-0.177 ± 0.12
12,K55S,-0.07 ± 0.079
13,K55P,-0.507 ± 0.37
14,K55D,-0.755 ± 0.33
15,K55W,-0.771 ± 0.32
16,K55M,-0.218 ± 0.14
17,K55N,-0.272 ± 0.17
18,K55F,-0.961 ± 0.42
19,K55Q,0.032 ± 0.11
20,K55G,-0.216 ± 0.1
21,K55Y,-0.294 ± 0.23
22,K55R,0.009 ± 0.072
23,K55H,-0.301 ± 0.27

row,Variant,abundance fitness
1,K55L,-0.303 ± 0.094
2,F53A,0.052 ± 0.073
3,F53L,0.056 ± 0.086
4,F53D,-0.433 ± 0.14
5,F53S,0.035 ± 0.071
6,F53T,0.205 ± 0.098
7,F53M,-0.047 ± 0.28
8,F53H,0.111 ± 0.11
9,F53P,-0.249 ± 0.11
10,F53R,0.001 ± 0.084
11,F53W,-0.026 ± 0.35
12,F53Y,-0.131 ± 0.13
13,F53G,-0.145 ± 0.089
14,F53Q,-0.317 ± 0.12
15,F53N,-0.053 ± 0.072
16,F53V,0.023 ± 0.083
17,F53E,-0.155 ± 0.21
18,F53I,-0.119 ± 0.14
19,F53C,0.122 ± 0.083
20,R59Y,-0.156 ± 0.26
21,R59P,0.2 ± 0.15
22,R59E,0.138 ± 0.12
23,R59Q,0.024 ± 0.25

row,Variant,abundance fitness
1,R59A,-0.303 ± 0.22
2,R59T,-0.011 ± 0.32
3,R59L,0.063 ± 0.11
4,R59S,0.052 ± 0.1
5,R59H,0.107 ± 0.14
6,R59F,-0.182 ± 0.22
7,R59M,-0.058 ± 0.1
8,R59W,-0.126 ± 0.1
9,R59K,0.012 ± 0.14
10,R59C,0.035 ± 0.29
11,R59G,0.011 ± 0.097
12,D51H,-0.032 ± 0.099
13,D51L,-0.017 ± 0.067
14,D51N,0.191 ± 0.3
15,D51R,-0.019 ± 0.064
16,D51G,-0.047 ± 0.076
17,D51T,0.018 ± 0.071
18,D51M,-0.136 ± 0.41
19,D51S,-0.055 ± 0.057
20,D51W,-0.425 ± 0.41
21,D51I,0.092 ± 0.11
22,D51V,-0.066 ± 0.091
23,D51C,-0.195 ± 0.45

row,Variant,abundance fitness
1,D51P,-0.092 ± 0.083
2,D51Y,-0.125 ± 0.088
3,D51A,0.04 ± 0.059
4,D51E,0.032 ± 0.2
5,K58Q,0.059 ± 0.43
6,K58V,-0.315 ± 0.29
7,K58R,-0.036 ± 0.14
8,K58A,-0.021 ± 0.27
9,K58G,-0.008 ± 0.29
10,K58E,0.001 ± 0.22
11,K58M,-0.138 ± 0.25
12,K58C,-0.099 ± 0.24
13,N52Y,-0.203 ± 0.19
14,N52S,0.107 ± 0.08
15,N52T,-0.05 ± 0.11
16,N52G,-0.128 ± 0.17
17,N52P,-0.065 ± 0.08
18,N52F,0.073 ± 0.13
19,N52C,-0.041 ± 0.17
20,N52H,-0.284 ± 0.13
21,N52A,-0.091 ± 0.22
22,N52D,-0.236 ± 0.23
23,N52E,-0.263 ± 0.34

row,Variant,abundance fitness
1,N52K,0.071 ± 0.096
2,N52R,0.028 ± 0.094
3,N52I,-0.141 ± 0.18
4,N52V,0.061 ± 0.17
5,N52M,-0.155 ± 0.11
6,N52L,-0.03 ± 0.078
7,N52Q,-0.127 ± 0.13
8,E56A,-0.002 ± 0.12
9,E56S,-0.256 ± 0.11
10,E56C,-0.044 ± 0.4
11,E56V,-0.05 ± 0.27
12,E56T,-0.244 ± 0.17
13,E56I,-0.286 ± 0.44
14,E56M,-0.152 ± 0.21
15,E56K,0.024 ± 0.28
16,E56L,-0.18 ± 0.1
17,E56R,-0.137 ± 0.089
18,E56P,0.06 ± 0.19
19,E56Q,-0.217 ± 0.25

# Variants of: B2
# Assay: as above
# Settings: Homo sapiens
row,Variant,abundance fitness
1,D18C,-0.331 ± 0.048
2,K33C,-0.417 ± 0.059
3,K33S,-0.305 ± 0.084
4,K33M,-0.325 ± 0.067
5,G22W,-0.712 ± 0.074
6,G22E,-0.43 ± 0.078
7,A24H,-0.454 ± 0.053
8,T25Q,-0.522 ± 0.052
9,T32M,-0.947 ± 0.12
10,L42E,0.096 ± 0.079
11,N10H,-0.086 ± 0.058
12,S20Q,-0.242 ± 0.067
13,I11S,-0.436 ± 0.057
14,L4A,-0.37 ± 0.063
15,R3E,-0.57 ± 0.069
16,P27E,-0.131 ± 0.059
17,G29C,-0.706 ± 0.12

row,Variant,abundance fitness
1,G29Q,-0.418 ± 0.051
2,A8R,-0.391 ± 0.054
3,Q44R,-0.14 ± 0.061
4,Q44N,-0.337 ± 0.14
5,K43P,-0.477 ± 0.13
6,K43V,-0.28 ± 0.057
7,R28D,0.259 ± 0.1
8,R28Q,-0.314 ± 0.11
9,G26Y,-0.8 ± 0.17
10,A7S,-0.078 ± 0.052
11,R9G,-0.152 ± 0.042
12,P6G,-0.61 ± 0.048
13,P6I,-0.113 ± 0.046
14,F2G,-0.535 ± 0.04
15,F2P,-1.1 ± 0.14
16,K47D,-0.532 ± 0.43
